As a reminder, the stoichiometry N is a count of units in the complex or per binding partner.

Assay [1] deals with recombinant collagen IV α112 protomer (r-Prot). The assay can be described thus: SEC. A general note: Size exclusion chromatography separates by hydrodynamic size, large species first.
Another assay concerns the target PFHR9 NC1 domains. Put plainly: SEC.

For “recombinant collagen IV α112 protomer (r-Prot) (complex)”, the stoichiometry N in assay [1] came out at 2.
In the assay with PFHR9 NC1 domains, PFHR9 NC1 domains gave a stoichiometry N of 6.

The record behind these values is article PMC4878091.
